Reference: publication doi:10.1101/2025.08.14.670383

Target: ADGRG1_h1h2: ADGRG1 receptor bearing the designed GAIN domain SS_h1h2, on HEK293T cells (human) (UniProt Q9Y653)
Sequence of UniProt Q9Y653 (Q9Y653 26-693 V174C/S218C): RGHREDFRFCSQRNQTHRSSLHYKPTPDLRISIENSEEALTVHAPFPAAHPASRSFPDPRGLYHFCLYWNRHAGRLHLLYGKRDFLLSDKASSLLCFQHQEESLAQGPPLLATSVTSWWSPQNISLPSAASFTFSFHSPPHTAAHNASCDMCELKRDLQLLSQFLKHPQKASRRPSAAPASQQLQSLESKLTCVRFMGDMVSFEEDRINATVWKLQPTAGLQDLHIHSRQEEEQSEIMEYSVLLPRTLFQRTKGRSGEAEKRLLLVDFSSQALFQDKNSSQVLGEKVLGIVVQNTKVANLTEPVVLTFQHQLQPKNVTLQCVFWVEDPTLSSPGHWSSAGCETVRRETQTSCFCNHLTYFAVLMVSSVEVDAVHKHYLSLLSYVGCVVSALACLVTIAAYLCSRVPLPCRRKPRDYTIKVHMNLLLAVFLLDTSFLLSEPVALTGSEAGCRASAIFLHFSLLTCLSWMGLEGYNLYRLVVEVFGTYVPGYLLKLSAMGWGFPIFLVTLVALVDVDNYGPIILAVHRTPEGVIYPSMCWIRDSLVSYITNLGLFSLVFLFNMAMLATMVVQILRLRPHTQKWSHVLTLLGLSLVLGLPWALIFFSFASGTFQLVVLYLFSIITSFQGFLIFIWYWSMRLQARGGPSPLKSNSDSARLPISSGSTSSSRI

Col3-induced increase in activity, SRE-luciferase assay in HEK293T cells: > 2 fold
Substance: native human collagen III (from UniProt P02461 154-1221) (ligand)
